As usually defined, the EC50 is the concentration at which the effect is half-maximal. Read a low EC50 as greater potency. Usually EC50 (read off the curve) stands for the concentration needed to bring the measured effect to its halfway point. High values mean a need for much substance, low ones an effect from little substance.

Seven molecules from patent US20220088193A1 (AGONOX, published 2022) can be followed below.

Experiment [1] deals with T1, human CD55 (human, UniProt P08174 35-353, limits assumed).
T1 construct: also called Decay-Accelerating Factor; DAF
T1 sequence (looked up): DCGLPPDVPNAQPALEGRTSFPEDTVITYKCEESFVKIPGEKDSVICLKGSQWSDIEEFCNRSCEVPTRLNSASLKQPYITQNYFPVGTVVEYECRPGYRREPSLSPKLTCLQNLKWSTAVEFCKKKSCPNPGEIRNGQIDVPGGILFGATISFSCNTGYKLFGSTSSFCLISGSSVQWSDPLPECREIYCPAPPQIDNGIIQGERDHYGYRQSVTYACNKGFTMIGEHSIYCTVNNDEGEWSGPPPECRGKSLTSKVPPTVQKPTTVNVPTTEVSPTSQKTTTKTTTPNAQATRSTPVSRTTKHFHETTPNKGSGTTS
The experiment in a line: ELISA on human CD55, HRP-anti-mouse secondary, A450; left panel 'Binding to human CD55 by ELISA', EC50 table below the graph.
Text: (§1) EC₅₀ values were obtained by fitting to a sigmoid non-linear equation, using PRISM. These human antibodies contained mouse IgG2A Fc domains for use in in vivo mouse tumor models and were detected by HRP-anti-mouse secondary antibodies.
as §1

The target in experiment [2] is T2, mouse CD55 (mouse, UniProt Q61475 35-362, limits assumed).
T2 sequence (looked up): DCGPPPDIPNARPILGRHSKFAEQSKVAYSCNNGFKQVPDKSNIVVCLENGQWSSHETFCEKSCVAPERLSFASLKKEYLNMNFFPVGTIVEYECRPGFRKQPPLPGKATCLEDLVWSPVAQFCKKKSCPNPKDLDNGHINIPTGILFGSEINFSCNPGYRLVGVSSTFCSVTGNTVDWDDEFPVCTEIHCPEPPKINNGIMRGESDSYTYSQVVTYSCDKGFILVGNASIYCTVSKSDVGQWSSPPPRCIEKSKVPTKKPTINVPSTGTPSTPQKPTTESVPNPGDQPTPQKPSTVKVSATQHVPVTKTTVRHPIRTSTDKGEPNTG
Put plainly: ELISA on mouse CD55, HRP-anti-mouse secondary, A450; right panel 'Binding to mouse CD55 by ELISA', EC50 table below the graph.
Text: as §1, §1

Experiment [3] has as its target T1, human CD55. The experiment in a line: library screen, species specificity summary.
The target in experiment [4] is T2, mouse CD55. The experiment in a line: ELISA on mouse CD55, HRP-anti-mouse secondary, A450; right panel 'Binding to mouse CD55 by ELISA'.
Text: as §1, §1
On the technique in general: In an ELISA, binding on a coated surface is turned into a signal by an enzyme label.

Experiment [5] has as its target T3, Plate-bound CD55 (Homo sapiens (Human), UniProt P08174 35-353).
T3 sequence: T1 sequence (looked up)
The experiment in a line: competition ELISA; plate-bound CD55 pre-incubated with the unlabeled competitor P5-2-2A, washed, biotinylated P5-1J titrated, Streptavidin-HRP. On the procedure: (§2) FIG. 3: Competition ELISA data for comparing the epitopes of the mouse+human CD55 binding antibodies.
(§3) Comparison of the epitopes of the mouse+human CD55-binding antibodies was performed by competition ELISA.

Experiment [6] deals with T3, Plate-bound CD55. The experiment in a line: competition ELISA on plate-bound CD55, streptavidin-HRP, A450; competitor antibody: None. On the procedure: as §2, §3
Experiment [7] has as its target T3, Plate-bound CD55. Put plainly: competition ELISA on plate-bound CD55, streptavidin-HRP, A450; plate pre-incubated with unlabeled competitor P5-4 at 1.0 ug/ml. On the procedure: as §2, §3
Experiment [8] addresses T3, Plate-bound CD55. Put plainly: competition ELISA on plate-bound CD55, streptavidin-HRP, A450; plate pre-incubated with unlabeled competitor P5-1J at 1.0 ug/ml. How it is done: as §2, §3
The target in experiment [9] is T3, Plate-bound CD55. Put plainly: competition ELISA; plate-bound CD55 pre-incubated with the unlabeled competitor P5-1J, washed, biotinylated P5-1J titrated, Streptavidin-HRP. On the procedure: as §2, §3
For experiment [10], the target named is T3, Plate-bound CD55. The experiment in a line: competition ELISA on plate-bound CD55, streptavidin-HRP, A450; plate pre-incubated with control competitor mIgG2A at 1.0 ug/ml (curve lies on that of None). On the procedure:
as §2, §3

The target in experiment [11] is T3, Plate-bound CD55. The experiment in a line: competition ELISA on plate-bound CD55, streptavidin-HRP, A450; plate pre-incubated with unlabeled competitor P5-2-2A at 1.0 ug/ml. How it is done:
as §2, §3

Residue numbers refer to the chain shown, from its start.

B1: P5-1 with mouse IgG2A Fc domains (antibody, V domains shown)
VH: EVQLVESGGGLVQPGGSLRLSCAASGFTFSSYYIHWVRQAPGKGLEWVAAISSSSGSTYYADSVKGRFTISADTSKNTAYLQMNSLRAEDTAVYYCARERYFYGDFVFDYWGQGTLVTVSS
VL: DIQMTQSPSSLSASVGDRVTITCRASQSVSSAVAWYQQKPGKAPKLLIYSASSLYSGVPSRFSGSRSGTDFTLTISSLQPEDFATYYCQQYYSSPLTFGQGTKVEIKR
notes: not shown: mouse IgG2A Fc domain
For the molecule B1, the figures for the EC50 in experiment [1] and in experiment [2] were 4.27 ng/mL and 3.46 ng/mL, respectively.

B2: P5-3 (antibody, V domains shown)
VH: EVQLVESGGGLVQPGGSLRLSCAASGFTFSSYYIHWVRQAPGKGLEWVAAISSSSGSTYYADSVKGRFTISADTSKNTAYLQMNSLRAEDTAVYYCAREDWHRYERRFYEGFDYWGQGTLVTVSS
VL: B1 VL
As to B2, the binding result in experiment [3] is “binds”.

B3: P5-2-2A with mouse IgG2A Fc domains (antibody, V domains shown)
VH: B1 VH with R100A, Y101R, Y103H, V107I, F108L
VL: B1 VL with S93I, S94T
notes: as for B1
In experiment [1], B3 yielded a 50% effective concentration (EC50) of 4.72 ng/mL. Besides, the half-maximal effective concentration (EC50 (read off the curve)) in experiment [4] was about 6 ng/mL.

B4: P5-2 (antibody, V domains shown)
VH: B1 VH with R100V, Y101R, F102I, Y103H, F108L
VL: B1 VL
notes: also called parent Ab P5-2
Turning to B4, in experiment [3], the binding result is “binds”.

B5: P5-1J with mouse IgG2A Fc domains (antibody, V domains shown)
VH: B1 VH with S31H, Y32H, S53T, S54G, S55G, S57T, Y103N, V107I, F108Y
VL: B1 VL with S94T
notes: as for B1
Take B5: the EC50 came to 4.07 ng/mL in experiment [1] and 3.21 ng/mL in experiment [2].

B6: P5-4 with mouse IgG2A Fc domains (antibody, V domains shown)
VH: B1 VH with R100D, F102Y, Y103W
VL: B1 VL
notes: as for B1
Regarding B6, the figures for the EC50 in [1] and in [2] were 3.68 ng/mL and 22.7 ng/mL, respectively.

B7: P5-1J (antibody, V domains shown)
VH: B1 VH with S31H, Y32H, S53T, S54G, S55G, S57T, Y103N, V107I, F108Y
VL: B1 VL with S94T
notes: also called biotinylated P5-1J; unlabeled P5-1J
For B7, the results for the “fold shift in EC50” value in experiment [5] and in experiment [9] were 20 fold and 100 fold, respectively. Moreover, the EC50 in experiment [6] is 2.13 ng/mL; in [7], 24.1 ng/mL; in [8], 108 ng/mL; in experiment [10], 1.96 ng/mL; in [11], 21.4 ng/mL.
